Laboratory results published in US20200262877A1, “ION CHANNEL-BINDING PEPTIDES AND METHODS OF USE THEREOF” (priority 2017, published 2020).

Assays:
NR2A = target: T1, NR2A (Homo sapiens, UniProt Q12879); assay: Ion channel panel (IonWorks Barracuda): NR2A; assay type: cell-based; settings: 100% = no change, <100% = inhibition
T1 construct: host or cells: HEK293 or CHO
Outline: (§1)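 Peptides were tested in duplicate at final 20 μM and 200 nM, with concentration set by amino acid analysis, in HEPES-buffered saline. They were applied for at least 5 min to HEK293 or CHO cells transfected with each channel. Currents were expressed as % inhibition, 1-(Ipeptide/Icontrol)×100, or % activation, Ipeptide/Icontrol×100, against a channel-matched reference compound.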

Nav1.7 = target: T2, Nav1.7 (Homo sapiens, UniProt Q15858); assay: cell-based; assay type: cell-based; settings: 100% = no change; for Activity of Nav1.7 with peptide, expressed as a percentage of the reference compound: peptide at 0.2 μM; for Activity of Nav1.7 with peptide (percentage of the reference compound): peptide at 20 μM
T2 construct: host or cells: HEK293 or CHO

Cav2.2 = target: T3, Cav2.2 (Homo sapiens, UniProt Q00975); assay: cell-based; settings: 100% = no change, <100% = inhibition
T3 construct: host or cells: HEK293 or CHO
Outline: as §1

Cav2.1 = target: T4, Cav2.1 (Homo sapiens, UniProt O00555); assay: cell-based; settings: 100% = no change, <100% = inhibition
T4 construct: host or cells: HEK293 or CHO
Outline: as §1

Kv2.1 = target: T5, Kv2.1 (Homo sapiens, UniProt Q14721); assay: cell-based; settings: 100% = no change, <100% = inhibition
T5 construct: host or cells: HEK293 or CHO
Outline: as §1

TRPV1 = target: T6, TRPV1 (Homo sapiens, UniProt Q8NER1); assay: Ion channel panel (IonWorks Barracuda): TRPV1; assay type: cell-based; settings: 100% = no change, <100% = inhibition
T6 construct: host or cells: HEK293 or CHO
Outline: as §1

α3β4 = target: T7, α3β4 (Homo sapiens, UniProt P30926+P32297); assay: Ion channel panel (IonWorks Barracuda): α3β4; assay type: cell-based; settings: 100% = no change, <100% = inhibition
T7 construct: host or cells: HEK293 or CHO
Outline: as §1

5HT3a = target: T8, 5HT3a (Homo sapiens, UniProt P46098); assay: Ion channel panel (IonWorks Barracuda): 5HT3a; assay type: cell-based
T8 construct: host or cells: HEK293 or CHO
T8 sequence (P46098 whole entry, looked up): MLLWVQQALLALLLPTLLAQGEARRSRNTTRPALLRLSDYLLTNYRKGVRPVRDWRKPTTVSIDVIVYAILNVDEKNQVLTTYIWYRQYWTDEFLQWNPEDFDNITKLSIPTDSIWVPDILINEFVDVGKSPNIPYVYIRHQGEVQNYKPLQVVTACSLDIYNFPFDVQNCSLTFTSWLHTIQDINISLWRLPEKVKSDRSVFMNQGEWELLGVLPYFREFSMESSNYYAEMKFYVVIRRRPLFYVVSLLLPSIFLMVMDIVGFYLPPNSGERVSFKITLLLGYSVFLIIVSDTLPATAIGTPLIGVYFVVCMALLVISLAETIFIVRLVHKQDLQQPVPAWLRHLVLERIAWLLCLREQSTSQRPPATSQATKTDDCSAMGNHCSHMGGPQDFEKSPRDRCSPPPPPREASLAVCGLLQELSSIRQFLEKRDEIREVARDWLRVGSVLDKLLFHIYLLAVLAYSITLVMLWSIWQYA
Outline: as §1

TRPA1 = target: T9, TRPA1 (Homo sapiens, UniProt O75762); assay: Ion channel panel (IonWorks Barracuda): TRPA1; assay type: cell-based; settings: 100% = no change, <100% = inhibition
T9 construct: host or cells: HEK293 or CHO
Outline: as §1

hERG = hERG (Homo sapiens, UniProt Q12809); assay: in vitro; settings: 100% = no change, <100% = inhibition
Outline: as §1

Nav1.5 = Nav1.5 (Homo sapiens, UniProt Q14524); assay: in vitro; settings: 100% = no change; for Activity of Nav1.5 with peptide, expressed as a percentage of the reference compound: peptide at 0.2 μM; for Activity of Nav1.5 with peptide (percentage of the reference compound): peptide at 20 μM
Outline: as §1

NR2B = target: T10, NR2B (Homo sapiens, UniProt Q13224); assay: Ion channel panel (IonWorks Barracuda): NR2B; assay type: cell-based; settings: 100% = no change, <100% = inhibition
T10 construct: host or cells: HEK293 or CHO
Outline: as §1

GABA = assay: Ion channel panel (IonWorks Barracuda): GABA; assay type: cell-based; settings: 100% = no change, <100% = inhibition
Outline: as §1

Kir2.1 = target: T11, Kir2.1 (Homo sapiens, UniProt P63252); assay: Ion channel panel (IonWorks Barracuda): Kir2.1; assay type: cell-based; settings: 100% = no change, <100% = inhibition
T11 construct: host or cells: HEK293 or CHO
Outline: as §1

α4β2 = target: T12, α4β2 (Homo sapiens, UniProt P17787+P43681); assay: Ion channel panel (IonWorks Barracuda): α4β2; assay type: cell-based; settings: 100% = no change, <100% = inhibition
T12 construct: host or cells: HEK293 or CHO
Outline: as §1

Kv1.2 = target: T13, Kv1.2 (Homo sapiens, UniProt P16389); assay: cell-based; assay type: cell-based; settings: 100% = no change, <100% = inhibition
T13 construct: host or cells: HEK293 or CHO
Outline: as §1

Kv1.1 = target: T14, Kv1.1 (Homo sapiens, UniProt Q09470); assay: cell-based; assay type: cell-based; settings: 100% = no change, <100% = inhibition
T14 construct: host or cells: HEK293 or CHO
Outline: as §1

Kv1.3 = target: T15, Kv1.3 (Homo sapiens, UniProt P22001); assay: cell-based; assay type: cell-based; settings: 100% = no change, <100% = inhibition
T15 construct: host or cells: HEK293 or CHO
Outline: as §1

[1] = first of two Nav1.7 columns (probably TP1)
[2] = second of two Nav1.7 columns (probably TP2)
[3] = first of two Nav1.5 columns (probably TP1)
[4] = second of two Nav1.5 columns (probably TP2)

T2 sequence (Q15858 whole entry): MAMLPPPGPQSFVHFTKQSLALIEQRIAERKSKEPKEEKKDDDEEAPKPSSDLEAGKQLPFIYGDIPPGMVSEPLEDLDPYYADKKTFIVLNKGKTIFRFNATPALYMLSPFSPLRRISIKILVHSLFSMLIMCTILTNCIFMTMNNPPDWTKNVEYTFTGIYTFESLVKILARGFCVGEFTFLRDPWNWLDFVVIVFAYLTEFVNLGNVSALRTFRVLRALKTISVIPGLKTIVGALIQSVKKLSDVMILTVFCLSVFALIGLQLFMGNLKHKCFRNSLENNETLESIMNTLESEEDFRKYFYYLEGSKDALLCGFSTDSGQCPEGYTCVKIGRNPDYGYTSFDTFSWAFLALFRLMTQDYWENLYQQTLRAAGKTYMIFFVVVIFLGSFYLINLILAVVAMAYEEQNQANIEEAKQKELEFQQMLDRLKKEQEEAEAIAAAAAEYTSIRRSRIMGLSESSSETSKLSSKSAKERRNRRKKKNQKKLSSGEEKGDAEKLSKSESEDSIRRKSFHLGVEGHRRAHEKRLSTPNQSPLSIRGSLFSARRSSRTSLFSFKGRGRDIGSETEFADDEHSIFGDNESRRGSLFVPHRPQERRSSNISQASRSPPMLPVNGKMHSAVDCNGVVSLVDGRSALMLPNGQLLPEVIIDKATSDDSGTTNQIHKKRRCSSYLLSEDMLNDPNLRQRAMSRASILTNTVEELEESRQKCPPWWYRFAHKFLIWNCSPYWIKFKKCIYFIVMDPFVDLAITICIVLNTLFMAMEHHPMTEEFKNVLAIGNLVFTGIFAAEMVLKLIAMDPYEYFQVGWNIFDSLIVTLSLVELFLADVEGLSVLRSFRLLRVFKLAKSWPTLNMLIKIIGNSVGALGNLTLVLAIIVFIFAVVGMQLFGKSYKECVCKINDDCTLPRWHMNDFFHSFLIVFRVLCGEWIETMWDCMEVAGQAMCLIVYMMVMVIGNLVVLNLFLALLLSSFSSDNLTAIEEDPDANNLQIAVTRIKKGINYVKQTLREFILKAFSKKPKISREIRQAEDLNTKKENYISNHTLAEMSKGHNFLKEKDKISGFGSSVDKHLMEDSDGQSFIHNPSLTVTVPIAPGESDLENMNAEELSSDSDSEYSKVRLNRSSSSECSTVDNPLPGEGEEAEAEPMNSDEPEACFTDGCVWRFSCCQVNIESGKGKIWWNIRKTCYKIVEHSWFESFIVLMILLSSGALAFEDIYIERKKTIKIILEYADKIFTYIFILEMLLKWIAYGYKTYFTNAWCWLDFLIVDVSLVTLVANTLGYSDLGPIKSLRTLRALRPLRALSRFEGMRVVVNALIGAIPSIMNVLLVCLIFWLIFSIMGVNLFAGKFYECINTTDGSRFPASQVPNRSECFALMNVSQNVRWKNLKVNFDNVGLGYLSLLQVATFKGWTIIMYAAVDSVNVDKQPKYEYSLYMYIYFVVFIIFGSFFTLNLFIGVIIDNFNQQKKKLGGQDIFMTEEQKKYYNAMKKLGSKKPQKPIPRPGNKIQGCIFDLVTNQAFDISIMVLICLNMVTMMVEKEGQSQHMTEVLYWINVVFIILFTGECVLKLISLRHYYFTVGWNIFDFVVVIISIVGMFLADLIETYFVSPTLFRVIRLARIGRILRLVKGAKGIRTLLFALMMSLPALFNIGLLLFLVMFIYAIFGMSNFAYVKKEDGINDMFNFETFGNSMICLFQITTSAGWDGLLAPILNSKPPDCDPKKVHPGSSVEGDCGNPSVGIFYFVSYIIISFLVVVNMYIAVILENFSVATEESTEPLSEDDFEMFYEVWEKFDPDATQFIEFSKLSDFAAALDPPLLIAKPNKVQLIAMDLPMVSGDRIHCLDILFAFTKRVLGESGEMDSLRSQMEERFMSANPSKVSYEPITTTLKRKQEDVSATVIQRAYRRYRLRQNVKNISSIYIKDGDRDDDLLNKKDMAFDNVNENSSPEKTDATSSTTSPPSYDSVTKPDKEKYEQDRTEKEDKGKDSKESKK
Chain of Nav1.5 (Q14524 whole entry): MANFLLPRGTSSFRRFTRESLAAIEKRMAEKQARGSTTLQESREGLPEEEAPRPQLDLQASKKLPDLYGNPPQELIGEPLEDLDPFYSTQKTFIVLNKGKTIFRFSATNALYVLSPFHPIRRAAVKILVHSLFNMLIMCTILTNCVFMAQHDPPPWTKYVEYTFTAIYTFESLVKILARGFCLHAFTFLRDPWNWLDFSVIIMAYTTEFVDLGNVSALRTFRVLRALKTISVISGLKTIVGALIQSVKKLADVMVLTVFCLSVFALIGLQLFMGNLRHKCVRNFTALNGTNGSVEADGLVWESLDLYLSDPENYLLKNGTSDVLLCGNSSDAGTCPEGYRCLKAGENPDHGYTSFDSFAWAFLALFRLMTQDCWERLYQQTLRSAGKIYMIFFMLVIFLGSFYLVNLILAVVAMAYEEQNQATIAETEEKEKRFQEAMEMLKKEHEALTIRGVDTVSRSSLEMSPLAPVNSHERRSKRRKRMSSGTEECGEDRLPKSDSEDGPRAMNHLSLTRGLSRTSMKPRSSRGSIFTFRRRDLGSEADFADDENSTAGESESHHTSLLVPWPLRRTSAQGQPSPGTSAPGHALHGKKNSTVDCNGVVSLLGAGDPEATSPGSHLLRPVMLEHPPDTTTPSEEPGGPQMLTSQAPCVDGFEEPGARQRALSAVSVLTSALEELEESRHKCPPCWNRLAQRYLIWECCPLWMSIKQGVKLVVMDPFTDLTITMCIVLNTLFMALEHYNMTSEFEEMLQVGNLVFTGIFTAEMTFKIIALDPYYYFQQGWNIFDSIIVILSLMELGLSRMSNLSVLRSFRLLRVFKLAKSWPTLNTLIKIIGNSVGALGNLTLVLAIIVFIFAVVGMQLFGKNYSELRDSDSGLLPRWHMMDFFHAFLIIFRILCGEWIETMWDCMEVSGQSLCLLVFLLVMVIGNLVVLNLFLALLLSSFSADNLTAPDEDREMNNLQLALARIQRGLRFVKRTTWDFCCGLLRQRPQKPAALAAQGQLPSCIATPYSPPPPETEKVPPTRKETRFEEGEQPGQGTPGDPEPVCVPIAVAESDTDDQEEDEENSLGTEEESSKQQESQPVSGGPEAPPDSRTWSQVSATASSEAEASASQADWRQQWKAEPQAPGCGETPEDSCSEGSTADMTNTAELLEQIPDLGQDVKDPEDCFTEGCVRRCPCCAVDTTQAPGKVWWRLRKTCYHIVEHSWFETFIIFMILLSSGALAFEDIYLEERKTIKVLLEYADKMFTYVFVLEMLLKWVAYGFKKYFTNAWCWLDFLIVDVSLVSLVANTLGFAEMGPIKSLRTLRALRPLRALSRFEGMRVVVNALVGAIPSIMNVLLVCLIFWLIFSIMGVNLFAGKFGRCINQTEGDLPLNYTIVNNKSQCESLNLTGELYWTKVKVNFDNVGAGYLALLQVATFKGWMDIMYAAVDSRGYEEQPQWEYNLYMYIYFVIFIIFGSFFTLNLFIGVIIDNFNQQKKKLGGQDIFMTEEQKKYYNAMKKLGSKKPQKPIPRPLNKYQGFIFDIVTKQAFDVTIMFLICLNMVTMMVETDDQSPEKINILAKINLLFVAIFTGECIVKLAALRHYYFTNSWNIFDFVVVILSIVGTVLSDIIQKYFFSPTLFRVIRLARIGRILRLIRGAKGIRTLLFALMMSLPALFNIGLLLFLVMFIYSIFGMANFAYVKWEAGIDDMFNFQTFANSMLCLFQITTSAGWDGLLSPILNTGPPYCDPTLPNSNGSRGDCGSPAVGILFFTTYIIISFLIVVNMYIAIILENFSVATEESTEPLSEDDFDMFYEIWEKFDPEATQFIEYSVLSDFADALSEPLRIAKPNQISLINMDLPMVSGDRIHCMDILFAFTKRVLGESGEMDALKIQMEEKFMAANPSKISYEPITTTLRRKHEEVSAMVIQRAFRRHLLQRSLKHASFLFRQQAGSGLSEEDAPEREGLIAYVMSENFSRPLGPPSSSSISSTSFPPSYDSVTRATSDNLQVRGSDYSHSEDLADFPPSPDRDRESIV
T14 sequence (Q09470 whole entry): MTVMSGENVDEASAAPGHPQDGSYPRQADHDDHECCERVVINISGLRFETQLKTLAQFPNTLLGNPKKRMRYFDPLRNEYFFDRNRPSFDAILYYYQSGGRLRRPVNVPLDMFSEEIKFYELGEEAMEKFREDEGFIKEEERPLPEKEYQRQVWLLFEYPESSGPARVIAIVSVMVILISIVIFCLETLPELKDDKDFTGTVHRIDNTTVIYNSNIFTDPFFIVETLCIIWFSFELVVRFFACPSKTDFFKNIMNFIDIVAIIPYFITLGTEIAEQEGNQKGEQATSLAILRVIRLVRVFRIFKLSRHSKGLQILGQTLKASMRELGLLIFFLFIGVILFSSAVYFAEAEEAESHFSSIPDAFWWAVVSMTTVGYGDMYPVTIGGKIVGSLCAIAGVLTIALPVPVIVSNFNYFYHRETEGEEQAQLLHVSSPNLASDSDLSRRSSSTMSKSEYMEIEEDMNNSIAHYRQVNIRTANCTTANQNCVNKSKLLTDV
T11 sequence (P63252 whole entry): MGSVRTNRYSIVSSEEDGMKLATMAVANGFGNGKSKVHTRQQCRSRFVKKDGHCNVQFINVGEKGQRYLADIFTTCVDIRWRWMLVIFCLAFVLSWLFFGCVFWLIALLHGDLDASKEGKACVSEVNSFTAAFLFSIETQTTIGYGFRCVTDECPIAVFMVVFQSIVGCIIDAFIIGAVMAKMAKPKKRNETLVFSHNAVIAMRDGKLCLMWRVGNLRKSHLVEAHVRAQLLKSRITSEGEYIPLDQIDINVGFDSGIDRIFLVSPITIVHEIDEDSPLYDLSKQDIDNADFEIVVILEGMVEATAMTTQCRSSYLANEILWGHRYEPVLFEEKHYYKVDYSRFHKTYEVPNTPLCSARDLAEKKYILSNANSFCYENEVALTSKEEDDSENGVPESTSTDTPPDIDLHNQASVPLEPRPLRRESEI

In the case of “27 (GSACQFWSCNSSCISRGYRQGYCWGIQYKYCQCQ) [compound 27]”, the “Activity of NR2A with peptide, expressed as a percentage of the reference compound” value (NR2A; peptide at 0.2 μM) is reported as 98%, the “Activity of NR2A with peptide (percentage of the reference compound)” value (NR2A; peptide at 20 μM) is reported as 88% and the “Activity of Nav1.7 with peptide, expressed as a percentage of the reference compound” value (Nav1.7; [1]) is reported as 104%. The “Activity of Nav1.7 with peptide, expressed as a percentage of the reference compound” value (Nav1.7; [2]) was 114%, the “Activity of Nav1.7 with peptide (percentage of the reference compound)” value (Nav1.7; [1]) was 97% and the “Activity of Nav1.7 with peptide (percentage of the reference compound)” value (Nav1.7; [2]) was 97%. For the same substance, the “Activity of Cav2.2 with peptide, expressed as a percentage of the reference compound” value (Cav2.2; peptide at 0.2 μM) was 105%, the “Activity of Cav2.2 with peptide (percentage of the reference compound)” value (Cav2.2; peptide at 20 μM) was 116% and the “Activity of Cav2.1 with peptide, expressed as a percentage of the reference compound” value (Cav2.1; peptide at 0.2 μM) was 108%. For the same substance, the “Activity of Cav2.1 with peptide (percentage of the reference compound)” value (Cav2.1; peptide at 20 μM) was 103%, the “Activity of Kv2.1 with peptide, expressed as a percentage of the reference compound” value (Kv2.1; peptide at 0.2 μM) was 91% and the “Activity of Kv2.1 with peptide (percentage of the reference compound)” value (Kv2.1; peptide at 20 μM) was 94%. For the same substance, the “Activity of TRPV1 with peptide, expressed as a percentage of the reference compound” value (TRPV1; peptide at 0.2 μM) was 99%, the “Activity of TRPV1 with peptide (percentage of the reference compound)” value (TRPV1; peptide at 20 μM) was 67% and the “Activity of a3b4 with peptide, expressed as a percentage of the reference compound” value (α3β4; peptide at 0.2 μM) was 98%. The “Activity of a3b4 with peptide (percentage of the reference compound)” value (α3β4; peptide at 20 μM) was 93%, the “Activity of 5HT3a with peptide (percentage of the reference compound)” value (5HT3a) was 78% and the “Activity of 5HT3a with peptide, expressed as a percentage of the reference compound” value (5HT3a) was 105%. The “Activity of TRPA1 with peptide, expressed as a percentage of the reference compound” value (TRPA1; peptide at 0.2 μM) was 85%, the “Activity of TRPA1 with peptide (percentage of the reference compound)” value (TRPA1; peptide at 20 μM) was 114% and the “Activity of hERG with peptide, expressed as a percentage of the reference compound” value (hERG; peptide at 0.2 μM) was 90%. For the same substance, the “Activity of hERG with peptide (percentage of the reference compound)” value (hERG; peptide at 20 μM) was 75%, the “Activity of Nav1.5 with peptide, expressed as a percentage of the reference compound” value (Nav1.5; [3]) was 94% and the “Activity of Nav1.5 with peptide, expressed as a percentage of the reference compound” value (Nav1.5; [4]) was 93%. The “Activity of Nav1.5 with peptide (percentage of the reference compound)” value (Nav1.5; [3]) was 104%, the “Activity of Nav1.5 with peptide (percentage of the reference compound)” value (Nav1.5; [4]) was 109% and the “Activity of NR2B with peptide, expressed as a percentage of the reference compound” value (NR2B; peptide at 0.2 μM) was 79%. The “Activity of NR2B with peptide (percentage of the reference compound)” value (NR2B; peptide at 20 μM) was 89%, the “Activity of GABA with peptide, expressed as a percentage of the reference compound” value (GABA; peptide at 0.2 μM) was 112% and the “Activity of GABA with peptide (percentage of the reference compound)” value (GABA; peptide at 20 μM) was 105%. The “Activity of Kir2.1 with peptide, expressed as a percentage of the reference compound” value (Kir2.1; peptide at 0.2 μM) was 101%, the “Activity of Kir2.1 with peptide (percentage of the reference compound)” value (Kir2.1; peptide at 20 μM) was 86% and the “Activity of a4b2 with peptide, expressed as a percentage of the reference compound” value (α4β2; peptide at 0.2 μM) was 90%. For the same substance, the “Activity of a4b2 with peptide (percentage of the reference compound)” value (α4β2; peptide at 20 μM) was 82%, the “Activity of Kv1.2 with peptide, expressed as a percentage of the reference compound” value (Kv1.2; peptide at 0.2 μM) was 84% and the “Activity of Kv1.2 with peptide (percentage of the reference compound)” value (Kv1.2; peptide at 20 μM) was 107%. The “Activity of Kv1.1 with peptide, expressed as a percentage of the reference compound” value (Kv1.1; peptide at 0.2 μM) was 81%, the “Activity of Kv1.1 with peptide (percentage of the reference compound)” value (Kv1.1; peptide at 20 μM) was 89% and the “Activity of Kv1.3 with peptide, expressed as a percentage of the reference compound” value (Kv1.3; peptide at 0.2 μM) was 106%. For the same substance, the “Activity of Kv1.3 with peptide (percentage of the reference compound)” value (Kv1.3; peptide at 20 μM) was 100%.
